From publication PMC3588017, “Measurement of the Interaction Between Recombinant I-domain from Integrin alpha 2 beta 1 and a Triple Helical Collagen Peptide with the GFOGER Binding Motif Using Molecular Force Spectroscopy” (International Journal of Molecular Sciences, 2013)

Experiments:
[1] = target: GFOGER peptide, synthetic triple helical collagen related peptide GPC[GPP]5GFOGER[GPP]5GPCG; assay: dynamic force spectroscopy (AFM); as a1, repeated over a range of loading rates; most dominant peak force against loading rate fitted with the Bell-Evans model; koff at zero applied force; details: both partners purified
[2] = target: GPP peptide, synthetic triple helical control peptide GPC[GPP]10GPCG; assay: as above; details: both partners purified

koff [1]: 0.44 s⁻¹
koff [2]: 11 s⁻¹
B1: I-domain from integrin alpha 2 beta 1, locked open I-domain cleaved of its GST tag (CLOI) (domain or fragment)
chain: CPSLIDVVVVCDESNSIYPWDAVKNFLEKFVQGLDIGPTKTQVGLIQYANNPRVVFNLNTYKTKEEMIVATSQTSQYGGDLTNTFGAIQYARKYAYSAASGGRRSATKVMVVVTDGESHDGSMLKAVIDQCNHDNILRFGIAVLGYLNRNALDTKNLIKEIKAIASIPTERYFFNVSDEAALLEKAGTLGEQIFSIEG
